The nature of this series: protein stability index of a GFP-peptide fusion (GPS, HEK-293T) (PSI 1-6); higher = more stable. To be noted: c terminus: a fixed tail appended.

± gives the standard deviation.
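Further: 24-mer peptide tiles fused after GFP, lentivirally expressed, FACS-sorted into six equal bins by GFP/DsRed ratio, decoded by Illumina sequencing, PSI is the read-weighted mean bin number.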

Take PFETREPPPAYEPPAPAPLPPPSA [SCAMP3]: the protein stability index runs as follows: (treatment: DMSO) 4.99 ± 0.22; (treatment: MLN4924 1 uM, 8 h) 5.08 ± 0.41.
On the same counts, the results for CTWSIFQSIEYAGQQDQVKLHDFF [PPEF2] are 2.54 ± 0.62 and 2.37 ± 0.46.
MNLELLESFGQNYPEEADGTLDCI [RBBP5]: the protein stability index was determined as 4.77 ± 0.25 (treatment: DMSO) and 4.89 ± 0.12 (treatment: MLN4924 1 uM, 8 h).
On the same counts, the results for IDLATWNFQFLPQVNGHPDPFDEI [PTPN9] are 2.43 ± 0.22 and 2.54 ± 0.35.
For the sequence AVVVLDQGSRHWQKLREESAARVV [DUSP5], the protein stability index is 2.85 ± 0.34 (treatment: DMSO) and 2.72 ± 0.23 (treatment: MLN4924 1 uM, 8 h).
On the same counts, the results for LMADLVADISEAEQRTIQAQKESL [APBB1IP] are 3.5 ± 0.56 and 3.6 ± 0.45.
On the same counts, the results for KAPDIECVLRCSVLEIEQSMNRVK [FEM1B] are 2.3 ± 0.41 and 2.55 ± 0.51.
On the same counts, the results for AITTDCLQILAYGNQESKLIILAS [CTNNB1] are 2.85 ± 0.64 and 2.81 ± 0.84.
Take AAVAQKPRSHFTTPAPMSSAWKTV [MYBL2]: the protein stability index (treatment: DMSO) turned out to be 3.06 ± 0.14 and the protein stability index (treatment: MLN4924 1 uM, 8 h) was 2.97 ± 0.22.
On the same counts, the results for RRVDFCKDPSAIGKKQVPCFASML [CASP6] are 2.43 ± 0.17 and 2.54 ± 0.23.
In the same order, the values of PFYTSRIDEVLLHQDVDLVCINLP [GFOD1] are 2.08 ± 0.18 and 2.21 ± 0.35.
In the same order, the values of GRPGIVAWTLINLSFAAKQRELHS [DHCR7] are 2.81 ± 0.31 and 3.02 ± 1.
Consider AGSEQKGQIIKDIDSGSPAEEAGL [PDZK1], for which the protein stability index runs as follows: (treatment: DMSO) 5.61 ± 0.11; (treatment: MLN4924 1 uM, 8 h) 5.26 ± 0.27.
On the same counts, the results for PFLFFGHFWQLFNALTLFNLAQDP [TMEM120A] are 3.35 ± 0.086 and 3.08 ± 0.13.
In the same order, the values of SPKGTLPPAALESSDSANTTIEDE [CAMK2B] are 5.64 ± 0.16 and 5.54 ± 0.29.
On the same counts, the results for GGTPHCEPCQLPSESPGSLSEVLA [DNAAF3] are 4.19 ± 0.49 and 4.56 ± 0.33.
In the case of VRGHHPKSGEEAVTVLEDLEKGLE [ZNF232], the protein stability index was 4.73 ± 0.21 (treatment: DMSO) and 4.72 ± 0.63 (treatment: MLN4924 1 uM, 8 h).
On the same counts, the results for GLRLRLPRRESLLRGLCRPLRPLL [C6orf223] are 2.15 ± 0.13 and 2.2 ± 0.29.
With HFLENLDKSRKGELLKKSDLQKDF [PRIM1], the protein stability index turned out to be 3.52 ± 0.21 (treatment: DMSO) and 3.95 ± 0.37 (treatment: MLN4924 1 uM, 8 h).
In the same order, the values of SDSIAYDKGEKLLRCKLAAFYRLA [ADD1] are 2.33 ± 0.49 and 2.34 ± 0.28.
On the same counts, the results for LGRELMLQLSEFLCEEFRNRNQRI [CPN1] are 2.31 ± 0.2 and 2.26 ± 0.26.
On the same counts, the results for QRIHAAERLCMGVDCTEIFGGNPR [ZNF263] are 3.36 ± 0.27 and 3.38 ± 0.31.
In turn, VGGYGTRLRPLTLSTPKPLVDFCN [GMPPB] registered a protein stability index (treatment: DMSO) of 2.41 ± 0.16 and a protein stability index (treatment: MLN4924 1 uM, 8 h) of 2.46 ± 0.14.
In the same order, the values of ETYMSADDLRINLWHLAITDRSFN [PPP2R2C] are 2.23 ± 0.32 and 2.36 ± 0.29.
On the same counts, the results for CGSFQVTTGLQVPSAVRCLQKRGS [FSD1] are 2.96 ± 0.2 and 2.8 ± 0.17.
On the same counts, the results for LALPPGAEHWTKEHCGAVCFVKDN [WAS] are 3.35 ± 0.23 and 3.45 ± 0.59.
LSPISHGNTIALFFRSLLPNYTME [TCF25]: the protein stability index was found to be 3.25 ± 0.47 (treatment: DMSO) and 2.33 ± 0.7 (treatment: MLN4924 1 uM, 8 h).
In the same order, the values of MEALDLQPGLSFLNLGSGTGYLSS [PCMTD2] are 3.4 ± 0.36 and 3.45 ± 0.4.
For the sequence SLTDSVNHHSPGGSSDASGSYSST [ESRRG], the protein stability index was 4.99 ± 0.28 (treatment: DMSO) and 5.1 ± 0.15 (treatment: MLN4924 1 uM, 8 h).
Regarding INKIAGHPLAQNERCLHMFLQEEA [SNX12], the protein stability index was found to be 3.07 ± 0.12 (treatment: DMSO) and 3.3 ± 0.17 (treatment: MLN4924 1 uM, 8 h).
On the same counts, the results for ADSLASKVTRLKSLALDIDRDAED [BET1L] are 5.3 ± 0.2 and 5.21 ± 0.21.
In the same order, the values of DINGLRRILDELTLCKADLEAQVE [KRT36] are 3.02 ± 0.33 and 3.14 ± 0.25.
As to VLGIPLTLVMFQSLGERMNTFVRY [KCNK9], the protein stability index (treatment: DMSO) stood at 3.24 ± 0.65 and the protein stability index (treatment: MLN4924 1 uM, 8 h) was determined as 2.83 ± 0.48.
On the same counts, the results for ALRNFACLTTGDVIAINYNEKIYE [UFD1] are 2.21 ± 0.49 and 2.29 ± 0.46.
On the same counts, the results for ASGLGLEITTQFLIYASYFALIAV [SLC19A2] are 3.26 ± 0.26 and 3.13 ± 0.47.
As to IKRAEDYGPVEVISHWHPNITINI [CLPTM1], the protein stability index stood at 3.11 ± 0.39 (treatment: DMSO) and 2.68 ± 0.14 (treatment: MLN4924 1 uM, 8 h).

These data come from the supplement of paper PMC10567573.
